Measurements reported in article PMC3856478 (2013).

Molecular target: T1, Colicin E9 OBS1 peptide 2-18 (Escherichia coli, UniProt P09883)
T1 chain: SGGDGRGHNTGAHSTSG
Test: ITC

B1: OmpF (protein)
chain: AEIYNKDGNKVDLYGKAVGLHYFSKGNGENSYGGNGDMTYARLGFKGETQINSDLTGYGQWEYNFQGNNSEGADAQTGNKTRLAFAGLKYADVGSFDYGRNYGVVYDALGYTDMLPEFGGDTAYSDDFFVGRVGGVATYRNSNFFGLVDGLNFAVQYLGKNERDTARRSNGDGVGGSISYEYEGFGIVGAYGAADRTNLQEAQPLGNGKKAEQWATGLKYDANNIYLAANYGETRNATPITNKFTNTSGFANKTQDVLLVAQYQFDFGLRPSIAYTKSKAKDVEGIGDVDLVNYFEVGATYYFNKNMSTYVDYIINQIDSDNKLGVGSDDTVAVGIVYQF
- Kd: ~1 µM
